Target: the molecule itself
Assay: SEC

B1: Enterococcus faecalis FabI enoyl-ACP reductase (enzyme, UniProt Q820V5 1-250, looked up)
chain: MFLQNKNVVVMGVANKKSIAWGCAKALKDQGANVIYTYQNERMKKQVVKLADENDLLVECDVASDASIQAAFETIKNEVGTIDGLVHAIAFAKKEELSGNVSDITRDGFLLAQDISSYSLLAVTHYAKPLLNPGSGIVTLTYLGSERAIPNYNMMGIAKASLETAVKYLAFELAADKIRVNGISAGAIKTLAVTGVKDYDQLISISNERTPDKTGVTIEEVGNTCAFLVSDLASGVVGDIIYVDKGVHLT
stoichiometry N: 2

Source: publication PMC3791895 (mBio, 2013)
